We go through one molecule from US20230235069A1 (KYMAB, published 2023).

For the assay, the target named is T1, human OX40 ligand (human, UniProt P23510 51-183, limits assumed).
T1 construct: also called hOX40L; the target
T1 sequence (looked up): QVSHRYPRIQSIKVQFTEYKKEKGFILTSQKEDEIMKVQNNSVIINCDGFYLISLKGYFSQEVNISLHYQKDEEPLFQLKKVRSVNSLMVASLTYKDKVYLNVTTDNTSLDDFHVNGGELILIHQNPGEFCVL
The assay is described as follows: PK ELISA of KY1005 in human serum on coated human OX40 ligand. A general note: In an ELISA, binding on a coated surface is turned into a signal by an enzyme label.

B1: KY1005 (antibody, human IgG4 S228P, kappa, V domains shown)
VH: EVQLVESGGGLVQPGGSLRLSCAASGFTFSNYAMNWVRQAPGKGLEWVSTISGSGGATRYADSVKGRFTISRDNSRNTVYLQMNSLRVEDTAVFYCTKDRLIMATVRGPYYYGMDVWGQGTTVTVSS
VL: DIQMTQSPSSLSASVGDRVTITCRASQSISSYLNWYQQKPGKAPNLLIYAASSLQSGVPSRFSGSGSETDFTLTISSLQPEDFATYYCQQSHSVSFTFGPGTKVDIKR
notes: also called 2D10; 02D10
Turning to B1, the binding result was “binds”.
